This test deals with T1, LeETR1 (Solanum lycopersicum, UniProt Q41342).
T1 construct: made in house; host or cells: E. coli
T1 sequence (Q41342 1-754): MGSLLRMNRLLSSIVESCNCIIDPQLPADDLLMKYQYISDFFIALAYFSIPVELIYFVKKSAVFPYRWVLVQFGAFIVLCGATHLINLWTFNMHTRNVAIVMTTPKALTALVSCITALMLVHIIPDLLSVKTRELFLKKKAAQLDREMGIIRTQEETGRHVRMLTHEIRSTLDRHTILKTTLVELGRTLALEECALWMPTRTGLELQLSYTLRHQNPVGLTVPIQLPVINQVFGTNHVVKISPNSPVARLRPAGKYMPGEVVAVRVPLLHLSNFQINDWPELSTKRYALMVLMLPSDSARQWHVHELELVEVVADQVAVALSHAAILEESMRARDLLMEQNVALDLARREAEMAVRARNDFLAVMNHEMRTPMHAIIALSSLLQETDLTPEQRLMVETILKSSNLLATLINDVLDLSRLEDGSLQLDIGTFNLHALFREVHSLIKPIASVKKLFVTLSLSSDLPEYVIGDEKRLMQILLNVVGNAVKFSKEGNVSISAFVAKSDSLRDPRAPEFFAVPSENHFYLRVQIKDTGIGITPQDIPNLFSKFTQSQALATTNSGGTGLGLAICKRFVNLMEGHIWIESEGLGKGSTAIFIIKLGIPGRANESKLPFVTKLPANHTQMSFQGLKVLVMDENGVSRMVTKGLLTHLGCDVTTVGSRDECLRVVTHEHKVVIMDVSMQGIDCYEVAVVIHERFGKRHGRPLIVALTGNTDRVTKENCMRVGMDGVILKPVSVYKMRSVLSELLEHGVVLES
The test can be described thus: MST interaction of labeled LeETR1 with LeEIN2^462–1316. It counts as binding, tomato. The following applies: 0.4 μM LeETR1 labeled with Alexa Fluor 488 succinimidyl-ester, LeEIN2^462–1316 4.69 nM to 9.6 μM, 50 mM Tris-HCl pH 8.0, 300 mM NaCl, 0.015% (w/v) Fos-Choline-16, 80% MST power, independent triplicates, mean +/− standard deviation, read-out: Kd of LeEIN2-LeETR1 complex formation. An excerpt:
Protein-protein interaction of LeEIN2 and LeETR1 was studied by microscale thermophoresis (MST). Thermophoresis, the motion of molecules in a temperature gradient, strongly depends on the hydration-shell, the charge and the size of the moving molecules. Typically, at least one of these features changes when a protein-protein interaction occurs. Thus, MST represents a highly sensitive and reliable tool to study protein-protein interactions. By recording the motion of a fluorescence-labeled molecule in the presence of increasing concentrations of a putative binding partner, the dissociation constant (Kd) reflecting the affinity of the interaction and the stability of the complex can be calculated. Recombinant LeETR1 was labeled with the fluorescent dye Alexa Fluor 488 and 0.4 μM of labeled LeETR1 was mixed with increasing concentrations of LeEIN2^462–1316 until saturation was reached (9.6 μM as final concentration). Binding of receptor and EIN2 was observed as a clear and strong response in the MST signal. […]
Figure 1 Interaction studies of tomato ETR1 and EIN2 via MST. […] Normalized fluorescence as MST signal is plotted against increasing LeEIN2^462–1316 (●) concentrations as described. […]

B1: LeEIN2^462–1316: recombinant C-terminal part of tomato EIN2, expressed in E. coli (protein)
chain: LKSASSRFDAQAFLQTHVPEPYSECNQLGASNAMFGLVEGSSQKQEGAFHVEKSLVSHPDLSTKDPDQLLPESLLDFEKVHQLATIDESKSETTFSAPAVVHPEVPVSAGASPSVKSVCNEVSGVVSVDTSVFNTETVDVAEKTLRIEGDMANDRDDGDSWEEPEEAIKGVSENAQSFISDGPGSYKSLSGKLEDTGSGTGSLSRLAGLGRAARRQLTEALNEFWGQLFDYHGVATAEAKSKKLDIILGLDSKMNPKPAPASLKVESSAYIPSGSARIPEPLINSHVYSPKQQFASNIVDSAYRVPKEPSSTSSMWSNHMKLVGAYVQSSNSNMLDSGERRYSSMRIPATSAGYDQQPATVHGYQITAYLNQLAKERGSDYLNGQLESPSPRSVSSLTSNYAEPLARVSGQKPQSGVSSRAPPGFGNVPVGRNNSMQPTNTTSVDHSSTETAESVAGSANSKKYYSLPDISGRYVPRQDSIVSDARAQWYNSMGFGQSGGRSTYEQAYMSGSLRAGGPQRYEHSPKVCRDAFSLQYSSNSGTGSLWSRQPFEQFGVAGKPDVGSGDHGTVLSSSAQESTSTVDLEAKLLQSFRSCIVKLLKLEGSEWLFRQDDGADEDLIGRIAAREKFLYEAETREISRLTNIGESHFSSNRKPGSAPKPEEMDYTKFLVMSVPHCGEGCVWKVDLIISFGVWCIHRILELSLMESRPELWGKYTYVLNRLQGIVDLAFSKPHSPTSHCFCLQIPAGRQQKASPPPISNGNLPPQAKQGRGKCTTAAMLLEMIKDVETAISCRKGRTGTAAGDVAFPKGKENLASVLKRYKRRLSNKPVGNQEVAGVAGPRKVTLSASSPPFVL
modifications: unlabeled in the MST titration of labeled LeETR1; Alexa Fluor 488 label in the reverse MST titration; Alexa Fluor 568 succinimidyl-ester label in the FRET assay; left off: His10, end not stated, state
notes: recombinant C-terminal part of tomato EIN2, expressed in E. coli
On to B1, for which the Kd was 619 nM.

What is called Kd is the equilibrium constant for the complex coming apart.
